Laboratory results taken from patent EP4647081A1.

Target: cell surface IgG (sIgG) of the sIgG+ B cell line SU-DHL-4
Test: cell-based or functional assay

Row | Substance | lowest concentration with significant toxicity on SU-DHL-4 (cell viability) [µg/mL] | percent of SU-DHL-4 cells killed above 0.001 µg/ml [%] | concentration showing weak cytotoxicity on SU-DHL-4 (cell viability) [µg/mL]
1 | SpA toxin | 0.0001 | 99 | 
2 | SpG toxin (from UniProt P00587 26-411) |  |  | 1
